Key:
His41 [1] = target: T1, His41 (UniProt position 3304, VYCPRHVICTS); assay: chemical modification; conditions: preincubation with DEPC on ice for 10-60 s; residual activity assay temperature per Table 1 footnote 25 °C; 150 mM NaCl in constant-ionic-strength mixed buffers; free enzyme (apo), 2 µM
Cys145 [2] = target: T2, Cys145 (UniProt position 3408, FLNGSCGSVGF); assay: chemical modification; conditions: preincubation with IAM on ice; residual activity assayed at 25 °C (Table 1 footnote says 25 °C); 150 mM NaCl in constant-ionic-strength mixed buffers; free enzyme (apo), 2 µM
His41 [3] = target: T1, His41; assay: kinetics; conditions: 150 mM NaCl in constant-ionic-strength mixed buffers
Cys145 [4] = target: T2, Cys145; assay: kinetics; conditions: 150 mM NaCl in constant-ionic-strength mixed buffers
Cys145 [5] = target: Cys145 (UniProt position 3385, FLNGSCGSVGF); assay: chemical modification; conditions: cited from earlier work
[6] = 25 °C (Table 1 footnote), apo (free) enzyme
[7] = 25 °C, free enzyme (kcat/Ka reports on free enzyme and free substrate)
[8] = 25 °C, free enzyme binding the inhibitor

## 3-chymotrypsin-like protease (3CL-PR; Main protease, Mpro, nsp5) (Severe acute respiratory syndrome coronavirus 2 (SARS-CoV-2))
His41 [1]
  pKa: 6.05 ± 0.07
Cys145 [2]
  pKa: 7.8 ± 0.1
His41 [3]; [6]
  pKa: 6.2 ± 0.3
His41 [3]; [7]
  pKa: 5.9 ± 0.1
His41 [3]; [8]
  pKa: 6.5 ± 0.2
His41 [3]; 25 °C, free enzyme in D2O
  pKa: 6.10 ± 0.07
Cys145 [4]; [6]
  pKa: 8.2 ± 0.4
Cys145 [4]; [7]
  pKa: 8.39 ± 0.07
Cys145 [4]; [8]
  pKa: 8.5 ± 0.1
Cys145 [4]; 25 °C, free enzyme in D2O
  pKa: 9.06 ± 0.06

## 3-chymotrypsin-like protease (3CLpro, Main protease, nsp5) (Severe acute respiratory syndrome coronavirus (SARS-CoV))
Cys145 [5]
  pKa: 7.8 ± 0.1
